Results as given in patent US20180079819A1 (IMMUNOGEN, published 2018).

B1: lysine-linked huCD123-6-IGN conjugate with DGN462 (antibody, human IgG1, kappa)
heavy: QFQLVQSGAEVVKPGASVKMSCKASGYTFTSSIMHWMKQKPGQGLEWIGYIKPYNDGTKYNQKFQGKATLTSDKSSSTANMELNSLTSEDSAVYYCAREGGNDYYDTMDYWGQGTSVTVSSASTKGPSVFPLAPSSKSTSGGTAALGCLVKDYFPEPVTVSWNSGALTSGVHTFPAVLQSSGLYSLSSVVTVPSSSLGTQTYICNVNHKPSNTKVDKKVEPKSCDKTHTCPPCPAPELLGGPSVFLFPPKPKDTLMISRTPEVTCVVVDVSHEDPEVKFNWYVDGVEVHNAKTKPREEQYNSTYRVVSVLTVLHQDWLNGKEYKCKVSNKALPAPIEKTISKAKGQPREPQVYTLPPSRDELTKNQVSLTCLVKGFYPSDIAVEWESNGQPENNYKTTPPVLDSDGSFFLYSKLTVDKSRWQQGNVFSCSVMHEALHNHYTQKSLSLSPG
light: DIQMTQSPSSMSASVGERVTITCRASQDINSYLSWFQQKPGKSPKTLIYRVNRLVDGVPSRFSGSGSGQDYSLTISSLEPEDMGIYYCLQYDAFPYTFGQGTKLEIKRTVAAPSVFIFPPSDEQLKSGTASVVCLLNNFYPREAKVQWKVDNALQSGNSQESVTEQDSKDSTYSLSSTLTLSKADYEKHKVYACEVTHQGLSSPVTKSFNRGEC
modifications: DGN462 linked at Lys residues; sites not stated; DGN462 linked at Lys residues; sites and drug load not given
B2: huCD123-6Gv4.7S3-SeriMab-D8 (antibody, human IgG1, kappa)
heavy: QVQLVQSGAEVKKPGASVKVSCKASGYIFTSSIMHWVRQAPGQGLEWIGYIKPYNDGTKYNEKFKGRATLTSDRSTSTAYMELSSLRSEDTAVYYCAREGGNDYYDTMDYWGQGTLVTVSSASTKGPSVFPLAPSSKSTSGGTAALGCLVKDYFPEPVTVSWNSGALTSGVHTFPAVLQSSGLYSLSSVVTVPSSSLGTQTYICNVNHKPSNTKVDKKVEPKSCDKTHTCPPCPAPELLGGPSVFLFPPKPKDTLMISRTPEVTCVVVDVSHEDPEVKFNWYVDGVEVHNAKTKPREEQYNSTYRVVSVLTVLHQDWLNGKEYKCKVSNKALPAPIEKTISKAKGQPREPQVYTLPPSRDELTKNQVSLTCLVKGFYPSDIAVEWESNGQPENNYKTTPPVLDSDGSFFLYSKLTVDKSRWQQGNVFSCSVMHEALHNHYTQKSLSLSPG
light: SIQMTQSPSSLSASVGDRVTITCRASQDINSYLSWFQQKPGKAPKTLIYRVNRLVDGVPSRFSGSGSGNDYTLTISSLQPEDFATYYCLQYDAFPYTFGQGTKVEIKRTVAAPSVFIFPPSDEQLKSGTASVVCLLNNFYPREAKVQWKVDNALQSGNSQESVTEQDSKDSTYSLSSTLTLSKADYEKHKVYACEVTHQGLSSPVTKSFNRGEC
modifications: D8 linked through the oxidized N-terminal Ser on the light chain
B3: huCD123-6Gv4.7S3-SeriMab-sD1 (antibody, human IgG1, kappa)
heavy: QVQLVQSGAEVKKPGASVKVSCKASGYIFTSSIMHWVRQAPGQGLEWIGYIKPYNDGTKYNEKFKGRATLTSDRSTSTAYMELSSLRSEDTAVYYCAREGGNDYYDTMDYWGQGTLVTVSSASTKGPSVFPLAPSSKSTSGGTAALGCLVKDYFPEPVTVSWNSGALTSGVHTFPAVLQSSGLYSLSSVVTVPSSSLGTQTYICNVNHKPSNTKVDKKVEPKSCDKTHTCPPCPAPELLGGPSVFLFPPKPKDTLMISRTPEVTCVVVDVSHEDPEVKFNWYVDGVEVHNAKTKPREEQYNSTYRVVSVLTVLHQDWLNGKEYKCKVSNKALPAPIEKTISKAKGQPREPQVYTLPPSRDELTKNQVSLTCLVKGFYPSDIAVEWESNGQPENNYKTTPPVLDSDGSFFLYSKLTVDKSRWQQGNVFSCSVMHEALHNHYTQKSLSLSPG
light: SIQMTQSPSSLSASVGDRVTITCRASQDINSYLSWFQQKPGKAPKTLIYRVNRLVDGVPSRFSGSGSGNDYTLTISSLQPEDFATYYCLQYDAFPYTFGQGTKVEIKRTVAAPSVFIFPPSDEQLKSGTASVVCLLNNFYPREAKVQWKVDNALQSGNSQESVTEQDSKDSTYSLSSTLTLSKADYEKHKVYACEVTHQGLSSPVTKSFNRGEC
modifications: sulfonated D1 (sD1) linked through the oxidized N-terminal Ser on the light chain; average of 2.0 D1 per antibody
notes: also called huCD123-6-SeriMab-sD1
B4: huCD123-6Gv4.7S3-sSPDB-D1 (antibody, human IgG1, kappa)
heavy: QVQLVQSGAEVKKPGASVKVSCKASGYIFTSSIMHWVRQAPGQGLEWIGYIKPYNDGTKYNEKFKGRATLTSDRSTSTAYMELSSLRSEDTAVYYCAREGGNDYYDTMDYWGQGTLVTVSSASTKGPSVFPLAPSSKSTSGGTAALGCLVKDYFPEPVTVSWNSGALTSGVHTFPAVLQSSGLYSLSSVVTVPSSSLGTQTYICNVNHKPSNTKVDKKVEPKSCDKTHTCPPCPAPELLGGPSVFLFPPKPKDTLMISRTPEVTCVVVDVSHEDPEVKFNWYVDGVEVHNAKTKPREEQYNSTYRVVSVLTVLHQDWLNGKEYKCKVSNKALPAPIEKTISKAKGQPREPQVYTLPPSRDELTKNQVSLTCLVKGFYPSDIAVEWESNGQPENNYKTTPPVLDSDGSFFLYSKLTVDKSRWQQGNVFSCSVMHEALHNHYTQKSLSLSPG
light: SIQMTQSPSSLSASVGDRVTITCRASQDINSYLSWFQQKPGKAPKTLIYRVNRLVDGVPSRFSGSGSGNDYTLTISSLQPEDFATYYCLQYDAFPYTFGQGTKVEIKRTVAAPSVFIFPPSDEQLKSGTASVVCLLNNFYPREAKVQWKVDNALQSGNSQESVTEQDSKDSTYSLSSTLTLSKADYEKHKVYACEVTHQGLSSPVTKSFNRGEC
modifications: D1 linked at Lys residues via a sulfonated SPDB linker; sites not stated; D1 linked at Lys residues via a sulfonated SPDB linker; average of 2.9 D1 per antibody, sites not stated
notes: also called huCD123Gv4.7S3-sulfo-SPDB-D1
B5: huCD123-6Gv4.7S3-D2 (antibody, human IgG1, kappa)
heavy: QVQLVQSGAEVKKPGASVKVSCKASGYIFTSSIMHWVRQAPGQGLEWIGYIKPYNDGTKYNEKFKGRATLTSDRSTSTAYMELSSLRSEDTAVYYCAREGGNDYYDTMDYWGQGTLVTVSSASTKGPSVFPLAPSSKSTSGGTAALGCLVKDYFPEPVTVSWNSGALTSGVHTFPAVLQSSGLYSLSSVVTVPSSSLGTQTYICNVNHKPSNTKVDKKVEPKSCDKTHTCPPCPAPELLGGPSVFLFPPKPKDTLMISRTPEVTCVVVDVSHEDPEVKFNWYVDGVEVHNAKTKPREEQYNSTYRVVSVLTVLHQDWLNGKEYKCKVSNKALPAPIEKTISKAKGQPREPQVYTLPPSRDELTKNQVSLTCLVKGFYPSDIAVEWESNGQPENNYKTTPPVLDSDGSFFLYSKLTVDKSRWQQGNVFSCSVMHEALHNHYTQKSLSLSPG
light: SIQMTQSPSSLSASVGDRVTITCRASQDINSYLSWFQQKPGKAPKTLIYRVNRLVDGVPSRFSGSGSGNDYTLTISSLQPEDFATYYCLQYDAFPYTFGQGTKVEIKRTVAAPSVFIFPPSDEQLKSGTASVVCLLNNFYPREAKVQWKVDNALQSGNSQESVTEQDSKDSTYSLSSTLTLSKADYEKHKVYACEVTHQGLSSPVTKSFNRGEC
modifications: D2 linked at Lys residues; sites not stated; D2 linked at Lys residues; average of 2.9 D2 per antibody, sites not stated
B6: huCD123-6Gv4.7-CysMab-D4 (antibody)
heavy: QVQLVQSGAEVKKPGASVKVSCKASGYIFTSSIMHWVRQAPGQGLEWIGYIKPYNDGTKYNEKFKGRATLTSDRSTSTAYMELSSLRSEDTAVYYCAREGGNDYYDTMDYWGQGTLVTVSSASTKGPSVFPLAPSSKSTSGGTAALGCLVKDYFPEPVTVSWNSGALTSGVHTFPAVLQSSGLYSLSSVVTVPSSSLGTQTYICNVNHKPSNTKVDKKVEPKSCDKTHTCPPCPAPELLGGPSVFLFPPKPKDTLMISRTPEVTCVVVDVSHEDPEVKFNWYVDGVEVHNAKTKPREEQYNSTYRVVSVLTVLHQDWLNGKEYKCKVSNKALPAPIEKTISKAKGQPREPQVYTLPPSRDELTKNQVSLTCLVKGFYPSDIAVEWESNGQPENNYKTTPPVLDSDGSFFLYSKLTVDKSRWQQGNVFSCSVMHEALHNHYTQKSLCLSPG
light: DIQMTQSPSSLSASVGDRVTITCRASQDINSYLSWFQQKPGKAPKTLIYRVNRLVDGVPSRFSGSGSGNDYTLTISSLQPEDFATYYCLQYDAFPYTFGQGTKVEIKRTVAAPSVFIFPPSDEQLKSGTASVVCLLNNFYPREAKVQWKVDNALQSGNSQESVTEQDSKDSTYSLSSTLTLSKADYEKHKVYACEVTHQGLSSPVTKSFNRGEC
modifications: D4 linked through the engineered Cys in the heavy chain CH3 domain (5th to the last residue of SEQ ID NO: 54; EU/OU position 442); 1.8 mol D4/mol antibody
B7: huCD123-6Gv4.7-CysMab (antibody)
heavy chain: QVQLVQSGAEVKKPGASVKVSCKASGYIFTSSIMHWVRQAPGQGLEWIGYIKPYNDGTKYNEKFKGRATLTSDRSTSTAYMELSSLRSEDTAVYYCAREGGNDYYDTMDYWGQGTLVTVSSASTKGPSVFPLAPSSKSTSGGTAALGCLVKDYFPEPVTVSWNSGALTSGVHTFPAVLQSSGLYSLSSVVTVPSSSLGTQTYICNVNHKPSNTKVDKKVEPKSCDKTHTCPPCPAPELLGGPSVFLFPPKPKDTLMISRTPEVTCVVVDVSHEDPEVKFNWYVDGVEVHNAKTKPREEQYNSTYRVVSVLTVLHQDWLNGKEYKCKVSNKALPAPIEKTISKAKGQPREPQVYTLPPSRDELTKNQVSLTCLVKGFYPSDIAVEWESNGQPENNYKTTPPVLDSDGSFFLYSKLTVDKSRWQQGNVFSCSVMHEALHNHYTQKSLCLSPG
light chain: DIQMTQSPSSLSASVGDRVTITCRASQDINSYLSWFQQKPGKAPKTLIYRVNRLVDGVPSRFSGSGSGNDYTLTISSLQPEDFATYYCLQYDAFPYTFGQGTKVEIKR
notes: Differs from m21 (huCD123-6Gv4.7) by the engineered Cys in the heavy chain CH3 domain; it is the antibody part of m29 and m30

The binders below were run against T1, human CD123 (IL-3Rα, interleukin-3 receptor alpha chain) (human, UniProt P26951 19-378) (assay: cell-based or functional assay).
T1 sequence (P26951 19-378): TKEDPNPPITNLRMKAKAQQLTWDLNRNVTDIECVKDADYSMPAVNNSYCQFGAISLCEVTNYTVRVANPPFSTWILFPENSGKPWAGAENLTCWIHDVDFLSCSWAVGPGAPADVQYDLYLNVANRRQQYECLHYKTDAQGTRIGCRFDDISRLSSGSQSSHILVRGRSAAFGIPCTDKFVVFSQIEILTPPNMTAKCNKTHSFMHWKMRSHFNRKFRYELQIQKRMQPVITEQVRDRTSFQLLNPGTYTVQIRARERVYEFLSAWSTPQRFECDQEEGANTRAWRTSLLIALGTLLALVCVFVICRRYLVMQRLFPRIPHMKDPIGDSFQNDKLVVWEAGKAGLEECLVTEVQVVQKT
B1 was tested, and the “IC50, in vitro cytotoxicity on EOL-1 cells (AML)” value was 9 pM, the “IC50, in vitro cytotoxicity on Granta519 cells (NHL)” value was 12 pM and the “IC50, in vitro cytotoxicity on HNT-34 cells (AML)” value was 23 pM. The “IC50, in vitro cytotoxicity on JM-1 cells (B-ALL)” value was 320 pM, the “IC50, in vitro cytotoxicity on KASUMI-3 cells (AML)” value was 2.8 nM and the “IC50, in vitro cytotoxicity on KCL-22 cells (CML)” value was 2 nM. For the same binder, the “IC50, in vitro cytotoxicity on KG-1 cells (AML)” value was 850 pM, the “IC50, in vitro cytotoxicity on KO52 cells (AML)” value was 390 pM and the “IC50, in vitro cytotoxicity on KOPN8 cells (B-ALL)” value was 53 pM. For the same binder, the “IC50, in vitro cytotoxicity on MOLM-1 cells (CML)” value was 1.1 nM, the “IC50, in vitro cytotoxicity on MOLM-13 cells (AML)” value was 2.2 pM and the “IC50, in vitro cytotoxicity on MV4-11 cells (AML)” value was 1.6 pM. For the same binder, the “IC50, in vitro cytotoxicity on OCI-AML2 cells (AML)” value was 140 pM, the “IC50, in vitro cytotoxicity on SHI-1 cells (AML)” value was 170 pM and the “IC50, in vitro cytotoxicity on THP1 cells (AML)” value was 190 pM.

These binders were tested against T1, human CD123 (IL-3Rα, interleukin-3 …) (assay: flow cytometry on HNT-34 cells, PE-conjugated goat anti-human secondary).
For B2, the “EC50 (read off the curve)” value was roughly 200 pM.
In the case of B3, the “EC50 (read off the curve)” value is reported as roughly 200 pM.
B4 was tested, and the “EC50 (read off the curve)” value was roughly 100 pM.
For B5, the “EC50 (read off the curve)” value was roughly 100 pM.

Molecular target: T1, human CD123 (IL-3Rα, interleukin-3 …)
Assay: as above
Remark: another data set of the same source
For B6, the “EC50 (read off the curve)” value was roughly 60 pM.
B7 was tested, and the “EC50 (read off the curve)” value was roughly 40 pM.
